Results on eight substances are retold here after patent publication US20210186010A1, “SURFACES […] QUORUM SENSING MODULATORS” (priority 2015, published 2021).

Assay [1] concerns the target AgrC-I receptor (Staphylococcus aureus (agr-I)). As to the kind of experiment: cell-based or functional assay.
The test system of assay [2] is Agr QS in the S. aureus reporter strain. As to the kind of experiment: Solution Assay: fluorescence reporter assay (agrP3-mkate2 normalized to sarAP1-gfpmut2), plate reader. Format: cell-based, Staphylococcus aureus. Conditions: activation of Agr QS, compound in solution; n=3 experiments. The method, then: Transcription from fluorescence reporter genes was measured in S. aureus strain MK242. Overnight cultures were diluted 1:200 into fresh TSB with 10 µg/ml tetracycline and 10 µg/ml erythromycin, re-grown, and 90 μl of these cultures were distributed into wells of 96 well plates (MatTek, Ashland, Mass.), followed by addition of 10 μl of AIP-I and/or TrAIP-II and/or derivatives. Subsequently, 50 μl of mineral oil was added (Sigma, St. Louis, Mo.) to prevent evaporation. Using a Synergy 2 plate reader (Biotek, Winooski, Vt.), GFPmut2 and mKate2 levels were measured at 484 nm/528 nm and 588 nm/633 nm, respectively. Measurements were conducted with 15 min intervals at 37° C. with shaking. This assay was called “Solution Assay”.
To make AIP-I amenable to surface attachment, AIP-I containing an alkyne at the N-terminus was synthesized (FIG. 7A and FIG. 8A). This compound was called “Alkyne-AIP-I” (FIG. 2A). Prior to attaching the Alkyne-AIP-I to the surface linkers, the click reaction was carried out between the Alkyne-AIP-I and a surface-free version of the PEG330-azide linker to test if the AIP-I derivatives retained their activation capability following the click reaction. […] This compound was called “PEG330-triazole-AIP-I” (FIG. 2A (iii), FIG. 7A and FIG. 8B).
It was investigated whether a QS antagonist, when immobilized on a surface, could interfere with Agr QS signal transduction. […]
Background: Reporter assays use an easily measured gene product as a stand-in for the process of interest.

Assay [3] has the same test system. Nature of the assay: Fluorescence imaging / single-cell analysis of S. aureus reporter strain incubated with compounds in solution. The class given is cell-based, Staphylococcus aureus. Conditions: 100 nM AIP-I, 3 h incubation. From the text: FIG. 1 Includes FIG. 1A-FIG. 1C. FIG. 1A. illustrates the Agr QS responses of S. aureus to exogenously supplied agonists and antagonists. To follow the QS status of S. aureus cells growing on unmodified and chemically-modified surfaces, confocal microscopy and an S. aureus reporter strain that produced the fluorescent protein mKate2 in response to exogenous addition of AIP-I was used. The reporter strain was a ΔagrBDCA ΔRNAIII S. aureus mutant harboring a multicopy plasmid carrying agrCA driven by the native agrP2 promoter. […] The plasmid also harbored the Agr-activated agrP3 promoter fused to mkate2. Therefore, in response to exogenously provided AIP-I, the reporter strain fluoresced red. This QS response was repressed by the administration of TrAIP-II. A constitutively expressed sarAP1-gfpmut2 gene was introduced into the chromosome to enable normalization of QS responses^18. FIG. 1B. […]
FIG. 1B. Fluorescence images of the S. aureus reporter strain (pathways shown in panel FIG. 1A) after 3 h incubation with buffer or buffer containing 100 nM AIP-I agonist. […] Fluorescence images of the S. aureus reporter strain used in this study following 3 h incubation with TrAIP-II or with combinations of AIP-I and TrAIP-II. […]
FIG. 6. […] To identify the source of heterogeneity, the fluorescent protein distributions in individual cells was measured under different conditions. […]

Several values for one entry are separate records, joined by “and”; a condition that tells them apart may be missing. Equal entries are not always repeated.

Substance Alkyne-AIP-I (peptide) came in with an EC50 of Agr QS activation (agrP3-mkate2 reporter normalised to constitutive GFPmut2, solution assay, S. aureus reporter strain) in assay [1] of 190 nM.
Take PEG330-triazole-AIP-I (peptide): the EC50 of Agr QS activation (agrP3-mkate2 reporter normalised to constitutive GFPmut2, solution assay, S. aureus reporter strain) in assay [1] amounted to 1100 nM.
In assay [1], “Surface-PEG10000-triazole-AIP-I (peptide)” displayed an activation of the Agr QS response at T=6 h against T=0 h (surface assay, microfluidic chambers) of 25 fold; a surface coverage density above which the QS response is saturated of more than 16000 µm^-2; a surface coverage density below which no QS response is elicited of less than 210 µm^-2.
AIP-I (peptide) had an EC50 of Agr QS activation (agrP3-mkate2 reporter normalised to constitutive GFPmut2, solution assay, S. aureus reporter strain) in assay [1] of 28 nM.
Consider AIP-I, for which the EC50 in assay [2] is 28 nM and 30 nM. For the same substance, the “mKate2 production (QS-controlled reporter)” value in assay [3] is “mKate2 was produced only when AIP-I was supplied to the cells”.
For the substance PEG330-triazole-TrAIP-II (peptide), the IC50 of Agr QS inhibition when AIP-I is present at 100 nM (reporter solution assay) in assay [1] is 3100 nM.
As for TrAIP-II (peptide), in assay [1], the IC50 of Agr QS inhibition when AIP-I is present at 100 nM (reporter solution assay) is 1500 nM and the decrease in QS inhibition when TrAIP-II is lowered from 2.5 µM to 250 nM, with 100 nM AIP-I worked out at 9 fold.
In assay [1], Alkyne-TrAIP-II (peptide) gave an IC50 of Agr QS inhibition when AIP-I is present at 100 nM (reporter solution assay) of 210 nM.

As a reminder, the EC50 is the concentration at which the effect is half-maximal.
